Measured values from US20140087995A1 (published 2014).
Numbered stars: 1 amine (or outer) side, 2 acyl side, 3 side chain; on linkers, the order of the positions; unused ones are H or OH. Bridge positions count the residues as written; N and C are the ends. Side chains are listed from the residue outwards. Ends that are not written are not given here. * marks the point of attachment. C20 diacid = O=C(O)CCCCCCCCCCCCCCCCCCC(=O)*; γGlu = O=C(O)[C@H](CCC(=O)[*:2])N[*:1]; AEEA = NCCOCCOCC(=O)O

T1: human amylin receptor (human, UniProt P30988 25-474; O60896 24-148, limits assumed)
T1 construct: whole, on cells; Calcitonin receptor plus RAMP-3 gives the amylin 3(a) receptor; membranes of Amylin 3(a)/CRE-luc cells were used; also called hAmylin-R; hAmylinR
T1 sequence (looked up) 1: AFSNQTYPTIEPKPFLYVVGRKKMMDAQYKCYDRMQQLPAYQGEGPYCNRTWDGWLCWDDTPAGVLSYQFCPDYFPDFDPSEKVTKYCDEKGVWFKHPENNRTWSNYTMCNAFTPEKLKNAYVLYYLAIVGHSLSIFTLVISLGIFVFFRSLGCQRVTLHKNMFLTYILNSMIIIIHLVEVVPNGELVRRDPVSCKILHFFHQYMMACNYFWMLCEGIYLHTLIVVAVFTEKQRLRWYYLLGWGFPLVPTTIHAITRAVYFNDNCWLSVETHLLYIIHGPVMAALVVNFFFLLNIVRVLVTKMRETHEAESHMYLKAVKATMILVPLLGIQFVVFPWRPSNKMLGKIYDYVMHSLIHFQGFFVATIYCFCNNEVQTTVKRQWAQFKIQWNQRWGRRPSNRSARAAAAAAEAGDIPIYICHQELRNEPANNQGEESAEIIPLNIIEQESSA
T1 sequence (looked up) 2: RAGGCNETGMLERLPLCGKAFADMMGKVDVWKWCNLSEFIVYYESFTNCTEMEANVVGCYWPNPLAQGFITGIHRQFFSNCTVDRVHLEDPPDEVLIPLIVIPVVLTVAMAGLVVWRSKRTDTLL

B1: N^ε1N^ε1-[(4S)-4-carboxy-4-(19-carboxynonadecanoylamino)butanoyl]-[His14,Arg17,Pro21,Pro27,Pro34]-h-amylin (peptide)
peptide: K([γGlu-C20 diacid])CNTATCATQRLAHFLRHSSPNFGAIPSSTNVGPNTY-NH2
modifications: disulfide 2-7; N-terminus assumed
SMILES: CC[C@H](C)[C@H](NC(=O)[C@H](C)NC(=O)CNC(=O)[C@H](Cc1ccccc1)NC(=O)[C@H](CC(N)=O)NC(=O)[C@@H]1CCCN1C(=O)[C@H](CO)NC(=O)[C@H](CO)NC(=O)[C@H](Cc1c[nH]cn1)NC(=O)[C@H](CCCNC(=N)N)NC(=O)[C@H](CC(C)C)NC(=O)[C@H](Cc1ccccc1)NC(=O)[C@H](Cc1c[nH]cn1)NC(=O)[C@H](C)NC(=O)[C@H](CC(C)C)NC(=O)[C@H](CCCNC(=N)N)NC(=O)[C@H](CCC(N)=O)NC(=O)[C@@H](NC(=O)[C@H](C)NC(=O)[C@@H]1CSSC[C@H](NC(=O)[C@@H](N)CCCCNC(=O)CC[C@H](NC(=O)CCCCCCCCCCCCCCCCCCC(=O)O)C(=O)O)C(=O)N[C@@H](CC(N)=O)C(=O)N[C@@H]([C@@H](C)O)C(=O)N[C@@H](C)C(=O)N[C@@H]([C@@H](C)O)C(=O)N1)[C@@H](C)O)C(=O)N1CCC[C@H]1C(=O)N[C@@H](CO)C(=O)N[C@@H](CO)C(=O)N[C@H](C(=O)N[C@@H](CC(N)=O)C(=O)N[C@H](C(=O)NCC(=O)N1CCC[C@H]1C(=O)N[C@@H](CC(N)=O)C(=O)N[C@H](C(=O)N[C@@H](Cc1ccc(O)cc1)C(N)=O)[C@@H](C)O)C(C)C)[C@@H](C)O
notes: also called 14H, 17R, 21P, 27P, 34P
B2: N{Alpha-1}-[(4S)-4-carboxy-4-(19-carboxynonadecanoylamino)butanoyl]-[Glu14,Arg17,Pro21,Pro27,Lys34]-h-amylin (peptide)
peptide: {C20 diacid-γGlu}-KCNTATCATQRLAEFLRHSSPNFGAIPSSTNVGKNTY-NH2
modifications: disulfide 2-7
SMILES: CC[C@H](C)[C@H](NC(=O)[C@H](C)NC(=O)CNC(=O)[C@H](Cc1ccccc1)NC(=O)[C@H](CC(N)=O)NC(=O)[C@@H]1CCCN1C(=O)[C@H](CO)NC(=O)[C@H](CO)NC(=O)[C@H](Cc1c[nH]cn1)NC(=O)[C@H](CCCNC(=N)N)NC(=O)[C@H](CC(C)C)NC(=O)[C@H](Cc1ccccc1)NC(=O)[C@H](CCC(=O)O)NC(=O)[C@H](C)NC(=O)[C@H](CC(C)C)NC(=O)[C@H](CCCNC(=N)N)NC(=O)[C@H](CCC(N)=O)NC(=O)[C@@H](NC(=O)[C@H](C)NC(=O)[C@@H]1CSSC[C@H](NC(=O)[C@H](CCCCN)NC(=O)CC[C@H](NC(=O)CCCCCCCCCCCCCCCCCCC(=O)O)C(=O)O)C(=O)N[C@@H](CC(N)=O)C(=O)N[C@@H]([C@@H](C)O)C(=O)N[C@@H](C)C(=O)N[C@@H]([C@@H](C)O)C(=O)N1)[C@@H](C)O)C(=O)N1CCC[C@H]1C(=O)N[C@@H](CO)C(=O)N[C@@H](CO)C(=O)N[C@H](C(=O)N[C@@H](CC(N)=O)C(=O)N[C@H](C(=O)NCC(=O)N[C@@H](CCCCN)C(=O)N[C@@H](CC(N)=O)C(=O)N[C@H](C(=O)N[C@@H](Cc1ccc(O)cc1)C(N)=O)[C@@H](C)O)C(C)C)[C@@H](C)O
notes: also called 14E, 17R, 21P, 27P, 34K
B3: N^ε1-[2-[2-[2-(19-carboxynonadecanoylamino)ethoxy]ethoxy]acetyl]-[Arg17,Pro21,Pro27]-h-amylin (peptide)
peptide: K([AEEA-C20 diacid])CNTATCATQRLANFLRHSSPNFGAIPSSTNVGSNTY-NH2
modifications: disulfide 2-7; N-terminus assumed
SMILES: CC[C@H](C)[C@H](NC(=O)[C@H](C)NC(=O)CNC(=O)[C@H](Cc1ccccc1)NC(=O)[C@H](CC(N)=O)NC(=O)[C@@H]1CCCN1C(=O)[C@H](CO)NC(=O)[C@H](CO)NC(=O)[C@H](Cc1c[nH]cn1)NC(=O)[C@H](CCCNC(=N)N)NC(=O)[C@H](CC(C)C)NC(=O)[C@H](Cc1ccccc1)NC(=O)[C@H](CC(N)=O)NC(=O)[C@H](C)NC(=O)[C@H](CC(C)C)NC(=O)[C@H](CCCNC(=N)N)NC(=O)[C@H](CCC(N)=O)NC(=O)[C@@H](NC(=O)[C@H](C)NC(=O)[C@@H]1CSSC[C@H](NC(=O)[C@@H](N)CCCCNC(=O)COCCOCCNC(=O)CCCCCCCCCCCCCCCCCCC(=O)O)C(=O)N[C@@H](CC(N)=O)C(=O)N[C@@H]([C@@H](C)O)C(=O)N[C@@H](C)C(=O)N[C@@H]([C@@H](C)O)C(=O)N1)[C@@H](C)O)C(=O)N1CCC[C@H]1C(=O)N[C@@H](CO)C(=O)N[C@@H](CO)C(=O)N[C@H](C(=O)N[C@@H](CC(N)=O)C(=O)N[C@H](C(=O)NCC(=O)N[C@@H](CO)C(=O)N[C@@H](CC(N)=O)C(=O)N[C@H](C(=O)N[C@@H](Cc1ccc(O)cc1)C(N)=O)[C@@H](C)O)C(C)C)[C@@H](C)O
notes: also called 17R, 21P, 27P
B4: N^-1-[(4S)-4-carboxy-4-(19-carboxynonadecanoylamino)butanoyl]-Gly[Arg1,Arg17,Pro21,Pro27]-h-amylin (peptide)
peptide: {C20 diacid-γGlu}-GRCNTATCATQRLANFLRHSSPNFGAIPSSTNVGSNTY-NH2
modifications: disulfide 3-8
SMILES: CC[C@H](C)[C@H](NC(=O)[C@H](C)NC(=O)CNC(=O)[C@H](Cc1ccccc1)NC(=O)[C@H](CC(N)=O)NC(=O)[C@@H]1CCCN1C(=O)[C@H](CO)NC(=O)[C@H](CO)NC(=O)[C@H](Cc1c[nH]cn1)NC(=O)[C@H](CCCNC(=N)N)NC(=O)[C@H](CC(C)C)NC(=O)[C@H](Cc1ccccc1)NC(=O)[C@H](CC(N)=O)NC(=O)[C@H](C)NC(=O)[C@H](CC(C)C)NC(=O)[C@H](CCCNC(=N)N)NC(=O)[C@H](CCC(N)=O)NC(=O)[C@@H](NC(=O)[C@H](C)NC(=O)[C@@H]1CSSC[C@H](NC(=O)[C@H](CCCNC(=N)N)NC(=O)CNC(=O)CC[C@H](NC(=O)CCCCCCCCCCCCCCCCCCC(=O)O)C(=O)O)C(=O)N[C@@H](CC(N)=O)C(=O)N[C@@H]([C@@H](C)O)C(=O)N[C@@H](C)C(=O)N[C@@H]([C@@H](C)O)C(=O)N1)[C@@H](C)O)C(=O)N1CCC[C@H]1C(=O)N[C@@H](CO)C(=O)N[C@@H](CO)C(=O)N[C@H](C(=O)N[C@@H](CC(N)=O)C(=O)N[C@H](C(=O)NCC(=O)N[C@@H](CO)C(=O)N[C@@H](CC(N)=O)C(=O)N[C@H](C(=O)N[C@@H](Cc1ccc(O)cc1)C(N)=O)[C@@H](C)O)C(C)C)[C@@H](C)O
notes: also called -1G, 1R, 17R, 21P, 27P
B5: N^-1-[(4S)-4-carboxy-4-(19-carboxynonadecanoylamino)butanoyl]-Gly[Arg1,Ala14,Arg17,Pro21,Pro27,Pro34]-h-amylin (peptide)
peptide: {C20 diacid-γGlu}-GRCNTATCATQRLAAFLRHSSPNFGAIPSSTNVGPNTY-NH2
modifications: disulfide 3-8
notes: also called -1G, 1R, 14A, 17R, 21P, 27P, 34P
B6: N^-1-[(4S)-4-carboxy-4-(19-carboxynonadecanoylamino)butanoyl]-Gly[Arg1,Ala14,Arg17,Pro21,Pro27,His34]-h-amylin (peptide)
peptide: {C20 diacid-γGlu}-GRCNTATCATQRLAAFLRHSSPNFGAIPSSTNVGHNTY-NH2
modifications: disulfide 3-8
SMILES: CC[C@H](C)[C@H](NC(=O)[C@H](C)NC(=O)CNC(=O)[C@H](Cc1ccccc1)NC(=O)[C@H](CC(N)=O)NC(=O)[C@@H]1CCCN1C(=O)[C@H](CO)NC(=O)[C@H](CO)NC(=O)[C@H](Cc1c[nH]cn1)NC(=O)[C@H](CCCNC(=N)N)NC(=O)[C@H](CC(C)C)NC(=O)[C@H](Cc1ccccc1)NC(=O)[C@H](C)NC(=O)[C@H](C)NC(=O)[C@H](CC(C)C)NC(=O)[C@H](CCCNC(=N)N)NC(=O)[C@H](CCC(N)=O)NC(=O)[C@@H](NC(=O)[C@H](C)NC(=O)[C@@H]1CSSC[C@H](NC(=O)[C@H](CCCNC(=N)N)NC(=O)CNC(=O)CC[C@H](NC(=O)CCCCCCCCCCCCCCCCCCC(=O)O)C(=O)O)C(=O)N[C@@H](CC(N)=O)C(=O)N[C@@H]([C@@H](C)O)C(=O)N[C@@H](C)C(=O)N[C@@H]([C@@H](C)O)C(=O)N1)[C@@H](C)O)C(=O)N1CCC[C@H]1C(=O)N[C@@H](CO)C(=O)N[C@@H](CO)C(=O)N[C@H](C(=O)N[C@@H](CC(N)=O)C(=O)N[C@H](C(=O)NCC(=O)N[C@@H](Cc1c[nH]cn1)C(=O)N[C@@H](CC(N)=O)C(=O)N[C@H](C(=O)N[C@@H](Cc1ccc(O)cc1)C(N)=O)[C@@H](C)O)C(C)C)[C@@H](C)O
notes: also called -1G, 1R, 14A, 17R, 21P, 27P, 34H
B7: N^ε1-[2-[2-[2-[[(4S)-4-carboxy-4-(19-carboxynonadecanoylamino)butanoyl]amino]ethoxy]ethoxy]acetyl]-[Arg17,Pro21,Pro27]-h-amylin (peptide)
peptide: K([AEEA-γGlu-C20 diacid])CNTATCATQRLANFLRHSSPNFGAIPSSTNVGSNTY-NH2
modifications: disulfide 2-7; N-terminus assumed
SMILES: CC[C@H](C)[C@H](NC(=O)[C@H](C)NC(=O)CNC(=O)[C@H](Cc1ccccc1)NC(=O)[C@H](CC(N)=O)NC(=O)[C@@H]1CCCN1C(=O)[C@H](CO)NC(=O)[C@H](CO)NC(=O)[C@H](Cc1c[nH]cn1)NC(=O)[C@H](CCCNC(=N)N)NC(=O)[C@H](CC(C)C)NC(=O)[C@H](Cc1ccccc1)NC(=O)[C@H](CC(N)=O)NC(=O)[C@H](C)NC(=O)[C@H](CC(C)C)NC(=O)[C@H](CCCNC(=N)N)NC(=O)[C@H](CCC(N)=O)NC(=O)[C@@H](NC(=O)[C@H](C)NC(=O)[C@@H]1CSSC[C@H](NC(=O)[C@@H](N)CCCCNC(=O)COCCOCCNC(=O)CC[C@H](NC(=O)CCCCCCCCCCCCCCCCCCC(=O)O)C(=O)O)C(=O)N[C@@H](CC(N)=O)C(=O)N[C@@H]([C@@H](C)O)C(=O)N[C@@H](C)C(=O)N[C@@H]([C@@H](C)O)C(=O)N1)[C@@H](C)O)C(=O)N1CCC[C@H]1C(=O)N[C@@H](CO)C(=O)N[C@@H](CO)C(=O)N[C@H](C(=O)N[C@@H](CC(N)=O)C(=O)N[C@H](C(=O)NCC(=O)N[C@@H](CO)C(=O)N[C@@H](CC(N)=O)C(=O)N[C@H](C(=O)N[C@@H](Cc1ccc(O)cc1)C(N)=O)[C@@H](C)O)C(C)C)[C@@H](C)O
notes: also called 17R, 21P, 27P

What follows are binders tested against T1, human amylin receptor (assay: SPA competition binding, displacement of 125I-rat amylin from membranes with human amylin 3(a) receptor (Assay V)).
How it was run: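 One-site competition analysis of SPA counts yielded IC₅₀ as a measure of affinity. Membranes were at 35 ng/μL final; incubation was 120 min at 25° C, pH 7.4.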

Row | Binder | IC50
1 | B1 | 0.09 nM
2 | B2 | 0.403 nM
3 | B3 | 0.076 nM
4 | B4 | 0.195 nM
5 | B5 | 0.114 nM
6 | B6 | 0.426 nM
7 | B7 | 0.427 nM
